Data published in patent US9789176.

Molecular target: CD40 (from R&D systems) (UniProt P25942)
Sequence of UniProt P25942 (P25942 21-193 limits assumed): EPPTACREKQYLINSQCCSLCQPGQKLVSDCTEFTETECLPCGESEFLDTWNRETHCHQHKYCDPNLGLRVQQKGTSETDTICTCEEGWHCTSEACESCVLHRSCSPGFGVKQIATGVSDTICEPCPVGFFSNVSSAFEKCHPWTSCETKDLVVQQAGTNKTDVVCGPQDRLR

Substance: toxic shock syndrome toxin-1 (TSST-1), native / wild-type (from UniProt P06886 41-234) (other; other documents disagree on this pair)
- Kd: 2.7 µM
